Test results taken from patent US20120039865A1, “IDENTIFICATION OF SORTILIN AS A NEURONAL RECEPTOR FOR THE FRONTOTEMPORAL DEMENTIA PROTEIN, PROGRANULIN” (Yale University, priority 2008, published 2012).
“Also recorded” adds a separate entry of the source.

T1: Sort1 (Mus musculus, UniProt Q6PHU5)
T1 construct: Brain lysate was prepared from mouse brain by homogenization in RIPA buffer; from tissue; host or cells: mouse brain lysate (RIPA buffer)
T1 sequence (Q6PHU5 74-825): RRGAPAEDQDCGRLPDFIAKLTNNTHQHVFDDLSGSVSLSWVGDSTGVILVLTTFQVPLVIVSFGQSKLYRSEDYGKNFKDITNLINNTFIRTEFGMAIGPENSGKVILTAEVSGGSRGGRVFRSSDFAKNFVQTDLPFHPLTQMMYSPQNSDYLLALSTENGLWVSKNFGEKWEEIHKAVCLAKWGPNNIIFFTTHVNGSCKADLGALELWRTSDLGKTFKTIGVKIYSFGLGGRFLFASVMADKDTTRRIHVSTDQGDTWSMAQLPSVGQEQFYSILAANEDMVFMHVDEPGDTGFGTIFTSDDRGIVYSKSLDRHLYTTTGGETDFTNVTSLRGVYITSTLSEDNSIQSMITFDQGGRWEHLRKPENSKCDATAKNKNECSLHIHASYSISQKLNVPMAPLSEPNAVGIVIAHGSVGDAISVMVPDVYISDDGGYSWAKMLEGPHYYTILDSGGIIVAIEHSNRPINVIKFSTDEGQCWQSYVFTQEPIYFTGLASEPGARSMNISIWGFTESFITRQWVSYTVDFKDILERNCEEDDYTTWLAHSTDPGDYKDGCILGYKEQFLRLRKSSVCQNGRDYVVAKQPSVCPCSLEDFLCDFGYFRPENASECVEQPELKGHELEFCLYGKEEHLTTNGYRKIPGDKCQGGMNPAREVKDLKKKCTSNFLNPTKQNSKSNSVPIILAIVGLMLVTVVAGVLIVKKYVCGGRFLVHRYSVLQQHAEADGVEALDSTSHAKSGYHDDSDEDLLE

T2: sortilin-1 (Sort1; PGRN-R) (Mus musculus, UniProt Q6PHU5)
T2 construct: host or cells: COS-7 (ATCC No. CRL-1651)
T2 sequence (Q6PHU5 74-825): T1 sequence (Q6PHU5 74-825)

T3: sortilin (Homo sapiens, UniProt Q99523)
T3 sequence (Q99523 78-831): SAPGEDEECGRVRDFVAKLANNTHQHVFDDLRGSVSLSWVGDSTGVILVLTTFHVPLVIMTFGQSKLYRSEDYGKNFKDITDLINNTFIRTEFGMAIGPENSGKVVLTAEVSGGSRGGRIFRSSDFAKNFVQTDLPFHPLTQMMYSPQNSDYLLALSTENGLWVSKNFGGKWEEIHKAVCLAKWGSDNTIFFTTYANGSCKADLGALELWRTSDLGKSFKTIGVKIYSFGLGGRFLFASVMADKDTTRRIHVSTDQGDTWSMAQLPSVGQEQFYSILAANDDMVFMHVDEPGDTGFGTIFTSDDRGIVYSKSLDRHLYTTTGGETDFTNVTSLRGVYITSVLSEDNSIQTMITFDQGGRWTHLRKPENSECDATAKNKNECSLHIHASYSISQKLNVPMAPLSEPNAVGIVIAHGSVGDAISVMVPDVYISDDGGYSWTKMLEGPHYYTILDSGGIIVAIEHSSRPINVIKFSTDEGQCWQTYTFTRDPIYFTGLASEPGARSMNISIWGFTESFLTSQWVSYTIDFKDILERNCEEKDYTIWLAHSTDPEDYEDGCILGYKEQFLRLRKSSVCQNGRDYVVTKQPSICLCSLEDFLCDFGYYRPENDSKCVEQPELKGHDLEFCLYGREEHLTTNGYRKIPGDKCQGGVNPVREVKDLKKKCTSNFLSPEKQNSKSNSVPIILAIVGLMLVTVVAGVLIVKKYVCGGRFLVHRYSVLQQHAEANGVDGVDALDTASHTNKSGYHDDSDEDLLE

B1: GST-PGRN: glutathione S-transferase (GST) fused to the C-terminal segment of PGRN (amino acids 495 to the end), produced in E. coli (protein)
chain: CEKEVVSAQPATFLARSPHVGVKDVECGEGHFCHDNQTCCRDNRQGWACCPYRQGVCCADRRHCCPAGFRCAARGTKCLRREAPRWDAPLRDPALRQLL
modifications: left off: a dimerising Fc or GST
notes: glutathione S-transferase (GST) fused to the C-terminal segment of PGRN (amino acids 495 to the end), produced in E. coli
B2: PGRN: progranulin protein; unlabeled/untagged competitor in binding assays, purified Flag-PGRN in Example 2 cultures (protein)
chain: TQCPDGQFCPVACCLDQGGANYSCCNPLLDTWPRITSHHLDGSCQTHGHCPAGYSCLLTVSGTSSCCPFSKGVSCGDGYHCCPQGFHCSADGKSCFQMSDNPLGAVQCPGSQFECPDSATCCIMVDGSWGCCPMPQASCCEDRVHCCPHGASCDLVHTRCVSPTGTHTLLKKFPAQKTNRAVSLPFSVVCPDAKTQCPDDSTCCELPTGKYGCCPMPNAICCSDHLHCCPQDTVCDLIQSKCLSKNYTTDLLTKLPGYPVKEVKCDMEVSCPEGYTCCRLNTGAWGCCPFAKAVCCEDHIHCCPAGFQCHTEKGTCEMGILQVPWMKKVIAPLRLPDPQILKSDTPCDDFTRCPTNNTCCKLNSGDWGCCPIPEAVCCSDNQHCCPQGFTCLAQGYCQKGDTMVAGLEKIPARQTTPLQIGDIGCDQHTSCPVGQTCCPSLKGSWACCQLPHAVCCEDRQHCCPAGYTCNVKARTCEKDVDFIQPPVLLTLGPKVGNVECGEGHFCHDNQTCCKDSAGVWACCPYLKGVCCRDGRHCCPGGFHCSARGTKCLRKKIPRWDMFLRDPVPRPLL

Tests used:
Sort1 = biological target: T1, Sort1; experiment: Affinity chromatography pull-down of Sort1 from brain lysate; format: binding; details: wild type brain lysate or extract
Experimental: For affinity chromatography, glutathione S-transferase (GST) fused to the C-terminal segment of PGRN (amino acids 495 to the end) was produced in E. coli as a 45 kDa protein and then purified on glutathione-sepharose resin. Brain lysate was prepared from mouse brain by homogenization in RIPA buffer and then incubated with the GST-PGRN containing resin. After washing, bound protein was eluted with SDS and analyzed by anti-sortilin immunoblot. […] Thus, it can be unexpectedly concluded from these studies that PGRN and sortilin interact in a ligand/receptor-type complex on the cell surface.

[1] = biological target: T2, sortilin-1 (Sort1; PGRN-R); experiment: AP-PGRN binding to COS-7 cells transfected with Sort1 cDNA
Experimental: (§1) Rat (Sprague-Dawley) cortical neurons were isolated from E18 embryos and cultured in vitro for 3-21 days. Cultures were maintained in Neurobasal-A medium supplemented with B27, GLUTAMAX™ (2 mM), sodium pyruvate (1 mM), penicillin, and streptomycin. The binding of 10 nM AP-PGRN or 10 nM AP was detected as a dark reaction product produced by alkaline phosphatase (AP). Binding was measured as follows. The AP tagged ligand (in NBA) was incubated with the cortical neurons for 1 hr at 4° C., washed three times with HBH buffer, fixed with formaldehyde, and after washing again with HBH the neurons were incubated in a 67° C. oven to inactivate the endogenous AP. The tagged AP was then visualized using AP substrate 5-bromo-4-chloro-3-indolyl phosphate/nitro blue tetrazolium, which results in a dark precipitate. […] The addition of 100 nM Flag-PGRN displaced 10 nM AP-PGRN (FIG. 1C, middle panel).
To determine the molecular nature of the neuronal binding site of PGRN, expression cloning experiments utilizing AP-PGRN as a tagged ligand were conducted. COS-7 (ATCC No. CRL-1651) cells were transfected with expression vectors containing mouse cDNAs using FUGENE® 6 according to manufacturer's specifications (Roche). […]

sortilin = biological target: T3, sortilin; experiment: PGRN binding to sortilin of human origin; details: data not shown
From the text: The human SorLA expression vector was provided by Anders Nykjaer, M.D., Ph.D., Aarhus University, Aarhus, Denmark (Jacobsen, L., et al., J. Biol. Chem. 276:22788-22796 (2001); Gliemann, J., et al., Biochem J. 381:203-212 (2004); GenBank Accession No. U60975), and the mouse SorCS1 expression vector in pCMV-Sport6 was obtained from Open Biosystems (GenBank Accession No. BC007486). […] A fragment of PGRN, termed PGRN-E in the literature, binds to sortilin with the same affinity as does full length PGRN (data not shown).

[2] = biological target: Rat (Sprague-Dawley) cortical neurons; experiment: AP-tagged ligand binding to cultured rat cortical neurons; details: saturation analysis, FIG. 1D; read-out: affinity of neuronal binding sites for PGRN
Experimental: as §1

[3] = test system: mouse E17 cortical neurons; experiment: AP-PGRN binding to mouse cortical neurons (wild type, sortilin +/- and -/-); details: 100 nM unlabeled competitor against 5 nM AP-PGRN, 1 hr preincubation
Experimental: as §1
Binding was measured according to the methods described above by preincubating 100 nM PGRN with the cortical neurons for 1 hr and using a 5 nM AP-PGRN and 100 nM untagged PGRN mixture. […]
Gene-targeted sortilin −/− and +/− mice from Anders Nykjaer, M.D., Ph.D., Aarhus University, Aarhus, Denmark, were used to obtain cultures of cortical neurons. The binding of 2 nM AP-PGRN to cortical neurons isolated from sortilin −/− (FIG. 3B, left panel) and +/− (FIG. 3B, right panel) mice was evaluated. […]

[4] = test system: Cortical neurons isolated from E18 rat embryos; experiment: Neurite outgrowth assay in cortical neurons; format: cell-based; details: 100 nM, 1 day in vitro, vs vehicle
Experimental: To further examine the PGRN-Sort1 interaction, neurite outgrowth assays were performed. Cortical neurons were isolated from E18 rat embryos and cultured for 1 day in vitro with or without 100 nM purified Flag-PGRN protein, as described above. Neurites were then visualized with an anti-Beta III tubulin (Promega) using an automated image acquisition. Neurite outgrowth analysis was done using ImageXpress (Molecular Devices), and average neurite length was calculated. […] Although this finding differs from a recent report (Van Damme, P., et al., J. Cell Biol. 181:37-41 (2008)), it is possible that cell survival is the primary action of PGRN, and any outgrowth effect is secondary.

[5] = test system: cortical neurons from E18 rat embryo cerebral cortex; experiment: Apoptosis assay (cleaved caspase 3) in cortical neuron cultures; format: cell-based; details: 100 nM, 36 hours, vs vehicle; 7 days in vitro
Experimental: In order to examine the PGRN-Sort1 interaction and the effects of PGRN on cerebral cortical cultures, apoptosis assays were performed. Cultures of cortical neurons were established from E18 rat embryo cerebral cortex, as described above, and maintained for 7 days in vitro. Then, the cells were exposed to vehicle or 100 nM purified PGRN protein for 36 hours. The cultures were maintained as mentioned above, and Flag-PGRN diluted in PBS or PBS vehicle were incubated in the cultures for 36 h. Thereafter, the cells were fixed with FA 15 mts and stained with anti-cleaved caspase 3 antibody (Cell Signaling) to detect apoptotic cells (FIG. 6A; shown in white) and with DAPI to detect all nuclei (FIG. 6A; shown in gray). […] These finding may relate indirectly to one study of immortalized cells linking PGRN to caspase-mediated cleavage of TDP43 (Zhang, Y. J., et al., J. Neurosci. 27:10530-10534 (2007)).

| Molecule | pull-down of Sort1 (anti-sortilin immunoblot) (Sort1) | displacement of AP-PGRN binding ([1]; 100 nM untagged competitor against 5 nM AP-PGRN) | binding to sortilin of mouse origin ([1]; data not shown) | binding to sortilin of human origin (sortilin) | Kd [2] [nM] | displacement of AP-PGRN binding [3] | cortical neurite outgrowth (βIII tubulin) [4] | number of cells positive for cleaved caspase-3 [5] |
| --- | --- | --- | --- | --- | --- | --- | --- | --- |
| B1 | immunoreactive Sort1 band was detected | – | – | – | – | – | – | – |
| B2 | – | displaceable | binds | binds | ~20 | displaced | No PGRN-induced change; also recorded: no significant difference | less |
